Results taken from the nanobody polyreactivity screen of Harvey et al. (2022).

Experiment: yeast display, Sf9 membrane polyspecificity reagent, FACS + sequencing; frameworks hold sequencing errors
Summary of the method: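 Galactose induction of a Saccharomyces cerevisiae BJ5465 synthetic nanobody display library ran 36–48 hours. The cells were then stained for 1 hour at 4 °C with 10% biotinylated, detergent-solubilized Sf9 membrane reagent, pulled down on streptavidin microbeads and FACS-sorted into low and high (top ~1%) gates on expression and reagent-binding fluorescence. Labels for polyreactivity follow the gate of origin.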

| Sequence | polyreactivity (PSR sort gate) |
| --- | --- |
| QVQLVESGGRLVQAGGSLRLSCAASGFTFPNYAMGWYRQAPGKERELVAAISWSGTSTYYADSVKGRFTISRDNAKNTVYLQMNSLKPEDTAVYDCAAKYQRGGYYESYWLRTGYYWGQGTQVTVSS | high polyreactivity |
| QVQLVESGGRLVQAGGSLRLSCAASGFTFSEYAMRWYRPAPGKVRELVAAINDGGGSTYYADSVKGRFTISRDNAKNTVYLQMNSLKPEDTAVYYCAVEQRLRYGYDYWGQGTQVTVSS | high polyreactivity |
| QVQLVESGGRLVQAGGSLRLSCAASGFTFVEYAMGWYRQAPGKERELVAANSRSGSTYYADSVKGRFTISRDNSKNTVYLQMNSLKPEDTAVYYCATLVYRKQYSRYDYWGQGTQVTVSS | high polyreactivity |
| QVQLVESGGRLVQAGGSLRLSCAASGGIFYYNAMGRYRQAPGKERELVAAIRYRGGSTYYADSVKGRFTISRDNAKNTVYLQMNSLKPEDTAVYYCAADYYRSRYYYWGQGTQVTVSS | low polyreactivity |
| QVQLVESGGRLVQAGGSLRLSCAASGGTLTSNPMGWYRPAPGKERELVAAINKSGGSTYYADSVKGRFTISRDNAKNTVYLQMNSLKPEDTAVYYCAARFYYWVSGGLVKYNYWGQGTQVTVSS | high polyreactivity |
| QVQLVESGGRLVQAGGSLRLSCAASGIIFKGYDMGWYRQEHGKVRELVAGITWIVGSTYADSVKGRFTISRDNAKNTVYLQMNSLKPEDTAVYYCNADPELTGYRFLCAEGVEYWGEGTQVTVSS | low polyreactivity |
| QVQLVESGGRLVQAGGSLRLSCAASGIIFTNYAMGWYRQAPGKERELVAAISSSSGTTYYADSVKGRFTISRDNAKNTVYLQMNSLKPEDTAVYYCAARPVYSTGYPRGRYGYWGQGTQVTVSS | high polyreactivity |
| QVQLVESGGRLVQAGGSLRLSCAASGIIFWVNAMGWYRQSTGKESELVAAISGRGGRTYYVDSVKGRFTISRDNAKNTVYLQMNSLKPEDTAVYYCNTVPYPAYLARMDYWGQGTQGTVSS | high polyreactivity |
| QVQLVESGGRLVQAGGSLRLSCAASGITFGVYAMGWYRQAPGKERELVAAISRRGAATYYADSVKGRFTISRDNAKNTVYLQMNSLKPEDTAVYYCAAYLARRQYDYWGQGTHVTVSS | high polyreactivity |
| QVQLVESGGRLVQAGGSLRLSCAASGLTFDPNDMGWYRQAPGKERELVAAISWSSGSTYYADSVKGRFTISRDNAKNTVYLQMNSLKPEDTAVYYCAAYFTLLFGTELYDYDYWGQGTQVTVSS | high polyreactivity |
| QVQLVESGGRLVQAGGSLRLSCAASGLTFGSYAMGWYRQAPGKESELVAGISARAGRTYYADSVKGRFTISRDNAKNTVYLQMNSLKPEDTAVYYCAARVYSRYHTKGFSNYQYDYWGQGTQVTVSS | high polyreactivity |
| QVQLVESGGRLVQAGGSLRLSCAASGLTITRNAMGWYRQAPGKERELVAAISWSGGSTYYADSVKGRFTISRDNAKNTVYLQMNSLKPEDTAVYDCAAEPYKQYTGYYYSGFEYWGQGTQVTVSS | high polyreactivity |
| QVQLVESGGRLVQAGGSLRLSCAASGLTLFRYAKGWYRTAPGKERELVAAIDYGGGTYYADSVKGRFTISRDNAKNTVYLQMNSLKPEDTAVYYCAVEPEYKYYEGDYWGQGTQVTVSS | low polyreactivity |
| QVQLVESGGRLVQAGGSLRLSCAASGNILRFNALGWYRQAPGKEWQLVAAISRSGGTTYFADSVKGRFTISRDTAKNTVYLQMNSLKPEDTAVYYCAARSRYGESPGYYWGQGTQVTVSS | high polyreactivity |
| QVQLVESGGRLVQAGGSLRLSCAASGRIFGPYVMGWYRQAPGKERELFAAISTSGTYTYYADSVNGRFTISPDNAKNTVYLQMNSLKPEDTAVYYCAKRSGARHRLMDYWGQGTQVTVSS | low polyreactivity |
| QVQLVESGGRLVQAGGSLRLSCAASGRIFLSYAMGWYRQAPGKERELVAAISRSGGRTYYADSVKGRFTISRDNAKNTVYLQMNSLKPEDTAVYYCNVVVYVLRHYLRYDYWGQGTQVTVSS | high polyreactivity |
| QVQLVESGGRLVQAGGSLRLSCAASGRIFNHYAMGWYRQAPGKERELVAAIDRSGGSTYYADSVKGRFTISRDNAKNTVYFQMNSLKPEDTAVYYCNARRIIAKYGYWGQGTQVTVSS | high polyreactivity |
| QVQLVESGGRLVQAGGSLRLSCAASGRIFRRYAMGWYRQAPGKERELVATINSGGTTNYADSVKGRFTISRDNAKNTVYLQMNSLKPEDTAVYYCNARSARYSGFDYWGQGTQVTVSS | high polyreactivity |
| QVQLVESGGRLVQAGGSLRLSCAASGRISPYAMGWYRQAPGKERELVAAISSRGGRTYYADSVKGRWTISRDNAKNTVYLEMNSQKPEDTAVYYCAVYPRSTLRTFQRDYWGQGTQVTVSS | high polyreactivity |
| QVQLVESGGRLVQAGGSLRLSCAASGSIFAVNTMGWYRQAPGKERELVAAISQRGSSTYYADSVKGRFTISRDNAKNTVYLQMNSLKPEDTAVYYCAKRFIYGRYNYWGQGTQVTVSS | high polyreactivity |
| QVQLVESGGRLVQAGGSLRLSCAASGSIFDAYAMGWYRQAPGKERELVAAITTVGSTNYADSVKGRFTISRDNAKNTVYLQMNSLKPEDTAVYYCNADCNTDIVPTPYDYWGQGTQVTVSS | low polyreactivity |
| QVQLVESGGRLVQAGGSLRLSCAASGSIFPGNAMGWYRQAPGKDREYVGAISWSGGSTNYADSVKGRFTISRDNAKYTVYLQMNSLKPEDTAVYYCAKRFVRLDPTTQLYGKAYEYWGQGTQVTVSS | high polyreactivity |

| Sequence | polyreactivity (PSR sort gate) |
| --- | --- |
| QVQLVESGGRLVQAGGSLRLSCAASGSIFVHNAMGWYRQAPGKERDLVAANTWSGGSTYYADSVKGRFTISRDNAKNTVYLQMNSVKPEDTAVYYCAAEDVAAQWAYESPTSYWYYYWGQGTQVTVSS | low polyreactivity |
| QVQLVESGGRLVQAGGSLRLSCAASGSIFYTYAMGWYRQAPGKEMELVAAITYRVGSTYYADSVKGRFTISRDNAKNTVYLQMNSLKPEDTAVYYCNADKGGHVRHYDYWGQGTQVTVSS | low polyreactivity |
| QVQLVESGGRLVQAGGSLRLSCAASGSILTSYPMGWNRQAPGKERELVAAISTTGGSTYYADSVKGRFTISRDNAKNTVYLQMNSLKPEDTAVYYCAKASGSGGEMDYWGQGTQVTVSS | low polyreactivity |
| QVQLVESGGRLVQAGGSLRLSCAASGSNSFRYAIGWDRQAPGKERELVARISSGGSTNYADSVKGRFTISRDNAKNTVYLQMNRLKPEDTAVYYCAKSFRYSVYPYSHYDYWGQGTQVTVSS | high polyreactivity |
| QVQLVESGGRLVQAGGSLRLSCAASGSTFSPYTMGCYRQAPGKERELVAGISKSGGRTYYADSVKGRFTISRDNAKNTVYLQMNCLKREVTAVYYCATRSTTDFYCGQGTQVTVSS | high polyreactivity |
| QVQLVESGGRLVQAGGSLRLSCAASGSTFWESVLGWNRQSPGKDRELVAAITTNDDSTYYADSVKGRFTISRDNAKNTVYLQMNSLKPEDTAVYYCNAVQITGQFDYWGQGTQVTVSS | low polyreactivity |
| QVQLVESGGRLVQAGGSLRLSCAASGYIFDWNAMGWYRQAPGKERELVAAISSGGRTNYADSVKGRFTISRDNAKITVYLQMNSLKPEDTAVYYCAAVYTDPYVEYDYWGQGTQVTVSS | low polyreactivity |
| QVQLVESGGRLVQAGGSLRLSCAASRRIFTFYAMGWSRPAPGKERELVAAITGRGGSTYYADSVKGRFTISRDNAKNTVYLQMNSLKPEDTAVYYCAKRTSYRSHRYYYWGQGTQVTVSS | high polyreactivity |
| QVQLVESGGRLVQAGGSLRLSCAASVRIFFQNAMGWSRQAPGKERELVAGISGSGGSTYYADSVKGRFTISRDNAKNTVYLQMNSLKPEDTAVYYCAARYGIISSFEYDYWGQGTQVTVSS | high polyreactivity |
| QVQLVESGGRLVQAGGSLRLSCASSGSTFVYYAMGWYRPAPGKERELVAVISDDGGTYYADSVKGRFTISRDNAKNTVYLQMNSLKPEDTAVYYCAIDYYGGAYYWYNDRSGDYWGQGTQVTVSS | low polyreactivity |
| QVQLVESGGRLVQAGGSLRLSCHASGIIFTAYAMGWYRPAPGKERELVAAITWSGGSTYYADSVKGRFTISRDNAKNTVYLQMNSLKPEDTAVYYCNGERPSFPFNYWGQGTQVTVSS | low polyreactivity |
| QVQLVESGGRLVQAGGSLRLSFAACGSILRDNSMGWYRQAPGKEREFVADIRGSYDSTYYADSVKGRFTISRDNAKHTVYLQMNSRKREDTAVYYCNRVDAWQDYDYWGLGTQVTVSS | low polyreactivity |
| QVQLVESGGRLVQAGGSLRLSWAASGITFFVNAMGWYRPAPGKERELVAVISRGDSTNYADSVKGRFTISRDNAKNTVYLLMNSLKPEDTAVYYCAADGSRAGLEGNDYWGQGTQVSVSS | low polyreactivity |
| QVQLVESGGRLVQAGGSLRLTCAASGSTFPKYAMGWYRQAPGKERELVASISVTTGSTYYADSVKGRFTISRDNAKNTVYLQMNSLKPVDTAVYYCAKRTYSRKFRGAYNYWGQGTQVTVSS | high polyreactivity |
| QVQLVESGGRLVQAGGSLRLTCAASGYTYSYYAMGWYRQAPGKERELVAAINYSGGRTYYADSVKGRFTISRDNAKNTVYLQMNSLKPEDTAVYYCAAYTRNGDYDYWGQGTQVTVSS | high polyreactivity |
| QVQLVESGGRLVQAGGSLRVSCAASGSTFLFYAMVWYRQAPGKERELVATISRGGSTYYADSVKGRFTISRDNAKNTVYLQMNSQIPEDTAVYYCAARATRVTIAPRYGYWGQGTQVTVSS | low polyreactivity |
| QVQLVESGGRLVQAGGTLRLSCAASGRIFGDYAMGWYRQAPGKERELVAVISVGGRTTYADSVKGRFTISRDNAKNTVYLQMNSLKPEDTAVYYCATRLSTRDGGYRGQGTQVTVSS | low polyreactivity |
| QVQLVESGGRLVQAGRSLRLSCAASGRTFGRYAMGWYRQAPGKERELVAAITRGGGSTYYADSVKGRFTISRDNAKYTVSLQMNSLKPEDTAVYYCAARNFRSPYGYDYWGQGTQVTVSS | high polyreactivity |
| QVQLVESGGRLVQAGVSLRLSCAAGGRTFGINAMGWYRQAPGKERELVARIRKTVGSTYYADSVKGRFTISRDNAKNTVYLQMNSLKPEDTAVYYCNADYDAYPRYIRYGYWGQGTQVTVSS | high polyreactivity |
| QVQLVESGGRLVQARGSLRLSCAASRSTFPFYYMGWYRQAPGKERELVAAHTRRCGSTYYAVSVKGRFTISRDNGKNTFYLQMNSLKPEDTAVYYCAADDYTITIYYILDYWGQGTQVTVSS | low polyreactivity |
| QVQLVESGGRLVQGGGSLRLSCAASGITFKGYTMGWYRQAPGKERELVATISRGGRTYADSVKGRFTISRDNAKNTVYLQMNSLKPEDSAVYYCAADKYWAQNDYWGQGTQVTVSS | low polyreactivity |
